Experiment: yeast display, Sf9 membrane polyspecificity reagent, FACS + sequencing; frameworks hold sequencing errors
Procedure, shortened: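 Genes from sorted yeast were amplified by colony PCR, read by MiSeq 2 × 250 sequencing and filtered on CDR length. These cells carried a synthetic nanobody library in Saccharomyces cerevisiae BJ5465 and were sorted by FACS into low and high (top ~1%) gates on anti-HA and streptavidin fluorescence. Polyreactivity is labelled according to the gate of origin.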

Row | Sequence | polyreactivity (PSR sort gate)
1 | QVQLVESGGGLVQAGGSLRLSCAASGRIFGIYAMGWYRQAPGKERELVASITGSSGSTNYADSVKGRFTISRDNAKNTVYLQMNSLKPEDTAVYYCAADIPSYYWWRAYDYWGQGTQVTVSS | low polyreactivity
2 | QVQLVESGGGLVQAGGSLRLSCAASGSIFVGYAMGWYRQAPGKERELVATISSSATSTYYADSVKGRFTISRDNATNTVYLQMNSLKPEDTAVYSCAVERDYGWPIYIRWHFDYWGQGTQVTVAS | low polyreactivity
3 | QVQLVESGGGLVQAGGSLRLRCAASGFTYSYYAMGWYRQAPGKERELVAAINSGGSTYYADSVKGRFTISRDNAKNTVFLLMNSLKPEDTAVYYCAAVYSPGRGYGYIYYYWGQGSQVTVSS | high polyreactivity
4 | QVQLQESGGGLVQAGGSLRLSCAASGYISSWYPMGWYRQAPGKEREFVATIAPRATTYYADSVKGRFTISRDYAKNTVYLQMNSLKPEDTAVYYCAAGPENNDVYSYWGQGTQVTVSS | low polyreactivity
5 | QVQLVESGGGLVQAGGSLRLSCAASGRTFEGNAMGWSRQAPGKERELVAAISTSGGRTYYADSVKGRFTISRDNAKKSVYLQMNSLKPEDTAVYYCATSFYVYPTYYILDYWGQGTQVTVSS | low polyreactivity
6 | QVQLVESGGGLVQAGGSLRLSCAASGSTFPLYAMGWYRQAPGKERDLVAAITSGGGNTYYADSVKGRFTISRDNAKITVYLQMNSLKPEDTAVYSCAAVGGYKSYYSYEYDYWGQGTQVTVSS | low polyreactivity
7 | QVQLVESGGGLVQAGGRLRLSCAASGGIIWAYAMGRYRQAPGKERELVAAISSSTGTTYYADSVKGRFTISRDNAKNTVYLQMNSLKPEETAVYYCAAYAYIGDYVSYYGGDYWGQGTQVTVSS | low polyreactivity
8 | QVQLVESGGGLVQAGGSLRLSCAASGSTFTVNCMGWYRQAPGKERELVASITWSGGSTYYADSVKGRFTISRDNAKNTVYFQMNSLKPEDTAVYYCAADEKLYITGYDYWGQGTQVTVSS | low polyreactivity
9 | QVQLVESGGGLVQAGGSLRLSCAASGFIFAYYAMGWYRQAPGKERELVAAISSRGGTYYADSVKGRFTISRDNAKNTVYFQMNSLKPEDTAVYYCAAASYTWVSRGYEYWGQGTQVTVSS | high polyreactivity
10 | HVQLVESGGGLVQAGGSLRLSCAASGSIFVLNAMGWYRQAPGKERELVAAITNVGSTYYADSVKGRFTISRDNAKNTVYLQMNSLKPEDTAVYYCNADPGEVLVGYDYWGQGTQVTVSS | low polyreactivity
11 | QVQLVESGGGLVQAGGSLRLSCAASGSTFRYYTMGWYRQAPGKERELVAAITYSGGSTYYADSVKGRFTISRDNAKNTVYLQMNSLKPEDTAVYYCAKRWSQPKYDYWGQGTQVTVSS | high polyreactivity
12 | QVQLVESGGCLVQAGGSLRLSCAASGFTFTKYAMGWYRQAPGQERELVAAINRSGRTYYADSVKGRFTISRDNAKNTVYLQMNSLKPEDTAVYYCAADTRYQYSAYDYWGQGTQVTVSS | high polyreactivity
13 | QVQLVESGGGLVQAGGSLRLSCAASGSIFYVYAMGWYRQAPGKERELVADITTRDGDTYYADSVKRRFTISRDNAKNTVYLQMNSLKPEDTAVYYCAADLNAYPLRAYDYWGQGTQVTVSS | low polyreactivity
14 | QVQLVDSVGGLVQAGGSLRLSCAASGSIFWTYAMGWYRQAPGKERELVATITYSDGNTYYADSVKGRFTISRDNAKNTVYLQMHSLKPEDTAVYYCNADGIYASISGYRYDYWGQGTQVTVSS | low polyreactivity
15 | QVQLVESGGGLVQAGGSLRLICAASGSTFYRYAMGWYRQAPGKERELVAAISSSGGSTYYADSVKGRFTISRDIAKNTVYLQMNSLKPEDTAVYYCNRYGSGHSFIYDYWGQGTQVTLSS | high polyreactivity
16 | QVQLVESGGGLDQAGGSLRLSSAASGFIFDGNAMGWYRQAPGKERELVASITKSSGRTYYADSVKGRFTISRDNAKNTVYLQMNSLKPEDTAVYYCNKARRSVQPYGRQYDYWGQGTQVTVSS | high polyreactivity
17 | QVQLVESGGGLVQAGGSLRLSCAASGRIFSFNGMGWYRPAPGKERELVAAITSSGGRTYYADSVKGRFTISRDNAKNTVYLQMNSLIPEDTAVYYCAAELAWDYYWGQGTQVTVSS | low polyreactivity

Reference: the nanobody polyreactivity screen of Harvey et al. (2022)
